Results taken from US20210284734A1 (SYMPHOGEN A S, published 2021).
Changes are numbered by the printed parent chain.

T1: human PD-1 ECD-Fc chimeric construct 5 (human, UniProt Q15116 21-170)
T1 construct: 'S56I' as printed; not shown: C-terminal human IgG Fc (printed as residues P101-K330)
T1 chain: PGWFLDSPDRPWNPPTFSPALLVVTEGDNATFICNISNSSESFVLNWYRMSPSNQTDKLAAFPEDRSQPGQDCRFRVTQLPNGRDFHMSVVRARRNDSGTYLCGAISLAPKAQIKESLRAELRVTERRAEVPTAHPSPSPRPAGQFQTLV

T2: human PD-1 ECD-Fc chimeric construct 22 (human, UniProt Q15116 21-170)
T2 construct: not shown: human IgG1 Fc, residues P101-K330
T2 chain: T1 chain with I33T, N35S, I36F, S39T, L118S, R119H, A120S, E121Q, R123V

T3: human PD-1 ECD-Fc chimeric construct 15 (human, UniProt Q15116 21-170)
T3 construct: not shown: human IgG1 Fc, residues P101-K330
T3 chain: T1 chain with I33T, N35S, I36F, S39T, G83T, R84P, D85V, H87K, S89E, V90I

T4: human PD-1 ECD-Fc chimeric construct 3 (human, UniProt Q15116 21-170)
T4 construct: not shown: human IgG1 Fc, residues P101-K330
T4 chain: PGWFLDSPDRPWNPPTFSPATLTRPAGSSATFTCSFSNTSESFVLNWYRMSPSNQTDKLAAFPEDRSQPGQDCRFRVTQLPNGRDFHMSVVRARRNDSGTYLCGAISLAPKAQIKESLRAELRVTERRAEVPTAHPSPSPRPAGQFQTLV

T5: human PD-1 ECD-Fc chimeric construct 10 (human, UniProt Q15116 21-170)
T5 construct: printed run together as P83IE84R; not shown: human IgG1 Fc, residues P101-K330
T5 chain: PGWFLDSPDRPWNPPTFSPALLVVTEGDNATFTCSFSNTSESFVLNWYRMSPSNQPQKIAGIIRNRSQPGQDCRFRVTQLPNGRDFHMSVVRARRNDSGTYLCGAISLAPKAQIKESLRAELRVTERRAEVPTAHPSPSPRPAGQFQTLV

B1: 13112.15380 Fab (Fab, V domains shown)
VH: EVQLLESGGGLVQPGGSLRLSCAASGFTFSSYNMFWVRQAPGKGLEFVAEISGSNTGSRTWYAPAVKGRATISRDNSKNTLYLQMNSLRAEDTAVYYCAKSIYGGYCAGGYSCGVGLIDAWGQGTLVTVSS
VL: SYELTQDPAVSVALGQTVRITCSGGSSDYYGWFQQKPGQAPVTVIYYNNKRPSDIPDRFSGSSSGNTASLTITGAQAEDEADYYCGNADSSVGVFGSGTKVTVL
B2: 12819.17149 Fab (Fab, V domains shown)
VH: EVQLLESGGGLVQPGGSLRLSCAASGFTFTRYDMVWVRQAPGKGLEWVAGIGDSNKMTRYAPAVKGRATISRDNSKNTLYLQMNSLRAEDTAVYYCAKGSCIACWDEAGRIDAWGQGTLVTVSS
VL: SYELTQDPAVSVALGQTVRITCSGGGSYDGSSYYGWYQQKPGQAPVTVIYNNNNRPSDIPDRFSGSSSGNTASLTITGAQAEDEADYYCGSYDRPETNSDYVGMFGSGTKVTVL
notes: monomeric Fab fragment
B3: 12865.17150 Fab (Fab, V domains shown)
VH: EVQLLESGGGLVQPGGSLRLSCAASGFDFSDHGMQWVRQAPGKGLEYVGVIDTTGRYTYYAPAVKGRATISRDNSKNTLYLQMNSLRAEDTAVYYCAKTTCVGGYLCNTVGSIDAWGQGTLVTVSS
VL: SYELTQDPAVSVALGQTVRITCSGGGSSSYYGWYQQKPGQAPVTVIYDDTNRPSGIPDRFSGSSSGNTASLTITGAQAEDEADYYCGGYEGSSHAGIFGSGTKVTVL
notes: monomeric Fab fragment

Molecular target: T1, human PD-1 ECD-Fc chimeric construct 5
Assay: SPR, Fab on captured PD-1-Fc
Protocol: (§1) The human PD-1 Fc fusion constructs were harvested after 9 days and supernatants were tested for binding affinity to anti-PD-1 Fabs by Surface Plasmon Resonance (SPR). Culture supernatants containing PD-1 fusion proteins were immobilized onto an G-a-hu-IgG Fc SensEye® (Ssens BV, The Netherlands) for 15 minutes using a Continuous Flow Microspotter (CFM, Wasatch Microfluidics, Salt Lake City, US). After spotting, the SensEye® was positioned in an IBIS MX96 biosensor and captured proteins were fixed to the surface using FixIT kit (Ssens BV, The Netherlands). […] Fab association was performed for 15 minutes and antigen dissociation was performed for 30 minutes. The recorded binding responses were fitted to a simple Langmuir 1:1 binding model with Scrubber 2 software for calculation of the on-rate (kₒₙ or ka), off-rate (koff or kd) and affinity (KD) constants.
(§2) The change in binding affinity of Fab antibodies binding to the mutated PD-1 constructs compared to wild-type were expressed as the ratio of KD mutant/KD wild-type (normalized binding affinity).

| KD mutant/KD wild-type [ratio] | Binder |
| --- | --- |
| 2.5 | B1 |
| 1.2 | B2 |
| 0.9 | B3 |

Molecular target: T2, human PD-1 ECD-Fc chimeric construct 22
Assay: SPR, Fab on captured PD-1-Fc
Protocol: as §1, §2

| KD mutant/KD wild-type [ratio] | Binder |
| --- | --- |
| 1 | B1 |
| 1.9 | B2 |
| 1 | B3 |

Molecular target: T3, human PD-1 ECD-Fc chimeric construct 15
Assay: SPR, Fab on captured PD-1-Fc
Protocol: as §1, §2

| KD mutant/KD wild-type [ratio] | Binder |
| --- | --- |
| 0.9 | B1 |
| 1.3 | B2 |
| 0.8 | B3 |

Molecular target: T4, human PD-1 ECD-Fc chimeric construct 3
Assay: SPR, Fab on captured PD-1-Fc
Protocol: as §1, §2

| KD mutant/KD wild-type [ratio] | Binder |
| --- | --- |
| 0.7 | B1 |
| 1.3 | B2 |
| 0.6 | B3 |

Molecular target: T5, human PD-1 ECD-Fc chimeric construct 10
Assay: SPR, Fab on captured PD-1-Fc
Protocol: as §1, §2

| KD mutant/KD wild-type [ratio] | Binder |
| --- | --- |
| 1 | B1 |
| 33.7 | B2 |
| 13.8 | B3 |

Molecular target: T6, human PD-1 ECD-Fc P160A (human, UniProt Q15116 21-170)
T6 construct: not shown: human IgG1 Fc, residues P101-K330
Assay: SPR, Fab on captured PD-1-Fc

| KD mutant/KD wild-type [ratio] | Binder |
| --- | --- |
| 1 | B1 |
| 1 | B2 |
| 0.8 | B3 |

Molecular target: T7, human PD-1 ECD-Fc D77A (human, UniProt Q15116 21-170)
T7 construct: not shown: human IgG1 Fc, residues P101-K330
T7 sequence (Q15116 21-170 D77A): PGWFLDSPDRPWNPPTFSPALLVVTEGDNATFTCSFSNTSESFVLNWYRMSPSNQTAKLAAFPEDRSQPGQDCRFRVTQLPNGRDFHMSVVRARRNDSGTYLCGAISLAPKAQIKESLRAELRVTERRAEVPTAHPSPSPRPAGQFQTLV
Assay: SPR, Fab on captured PD-1-Fc

| KD mutant/KD wild-type [ratio] | Binder |
| --- | --- |
| 1 | B1 |
| 2.8 | B2 |
| 0.3 | B3 |

Molecular target: T8, human PD-1 ECD-Fc T98A (human, UniProt Q15116 21-170)
T8 construct: not shown: human IgG1 Fc, residues P101-K330
Assay: SPR, Fab on captured PD-1-Fc

| KD mutant/KD wild-type [ratio] | Binder |
| --- | --- |
| 1 | B1 |
| 1.1 | B2 |
| 0.9 | B3 |

Molecular target: T9, human PD-1 ECD-Fc S157R (human, UniProt Q15116 21-170)
T9 construct: also called Rat mutation S157R; not shown: human IgG1 Fc, residues P101-K330
T9 sequence (Q15116 21-170 S157R): as the sequence (Q15116 21-170 D77A) above, with A57D, S137R counted along it
Assay: SPR, Fab on captured PD-1-Fc

| KD mutant/KD wild-type [ratio] | Binder |
| --- | --- |
| 1 | B1 |
| 1.6 | B2 |
| 0.9 | B3 |

Molecular target: T10, human PD-1 ECD-Fc G119A (human, UniProt Q15116 21-170)
T10 construct: not shown: human IgG1 Fc, residues P101-K330
T10 sequence (Q15116 21-170 G119A): as the sequence (Q15116 21-170 D77A) above, with A57D, G99A counted along it
Assay: SPR, Fab on captured PD-1-Fc

| KD mutant/KD wild-type [ratio] | Binder |
| --- | --- |
| 1 | B1 |
| 1 | B2 |
| 0.4 | B3 |

Molecular target: T11, human PD-1 ECD-Fc P130A (human, UniProt Q15116 21-170)
T11 construct: not shown: human IgG1 Fc, residues P101-K330
T11 sequence (Q15116 21-170 P130A): as the sequence (Q15116 21-170 D77A) above, with A57D, P110A counted along it
Assay: SPR, Fab on captured PD-1-Fc

| KD mutant/KD wild-type [ratio] | Binder |
| --- | --- |
| 0.9 | B1 |
| 105 | B2 |
| 0.5 | B3 |

Molecular target: T12, human PD-1 ECD-Fc E146A (human, UniProt Q15116 21-170)
T12 construct: not shown: human IgG1 Fc, residues P101-K330
T12 sequence (Q15116 21-170 E146A): as the sequence (Q15116 21-170 D77A) above, with A57D, E126A counted along it
Assay: SPR, Fab on captured PD-1-Fc

| KD mutant/KD wild-type [ratio] | Binder |
| --- | --- |
| 1 | B1 |
| 1.2 | B2 |
| 1 | B3 |

Molecular target: T13, human PD-1 ECD-Fc V64K (human, UniProt Q15116 21-170)
T13 construct: also called Rat mutation V64K; not shown: human IgG1 Fc, residues P101-K330
Assay: SPR, Fab on captured PD-1-Fc

| KD mutant/KD wild-type [ratio] | Binder |
| --- | --- |
| 1 | B1 |
| 35.7 | B2 |
| 1.3 | B3 |

Molecular target: T14, human PD-1 ECD-Fc P31A (human, UniProt Q15116 21-170)
T14 construct: not shown: human IgG1 Fc, residues P101-K330
T14 sequence (Q15116 21-170 P31A): as the sequence (Q15116 21-170 D77A) above, with P11A, A57D counted along it
Assay: SPR, Fab on captured PD-1-Fc

| KD mutant/KD wild-type [ratio] | Binder |
| --- | --- |
| 1.1 | B1 |
| 1.1 | B2 |
| 1 | B3 |

Molecular target: T15, human PD-1 ECD-Fc G124A (human, UniProt Q15116 21-170)
T15 construct: not shown: human IgG1 Fc, residues P101-K330
T15 sequence (Q15116 21-170 G124A): as the sequence (Q15116 21-170 D77A) above, with A57D, G104A counted along it
Assay: SPR, Fab on captured PD-1-Fc

| KD mutant/KD wild-type [ratio] | Binder |
| --- | --- |
| 1 | B1 |
| 0.5 | B2 |
| 4 | B3 |

Molecular target: T16, human PD-1 ECD-Fc K135A (human, UniProt Q15116 21-170)
T16 construct: not shown: human IgG1 Fc, residues P101-K330
T16 sequence (Q15116 21-170 K135A): as the sequence (Q15116 21-170 D77A) above, with A57D, K115A counted along it
Assay: SPR, Fab on captured PD-1-Fc

| KD mutant/KD wild-type [ratio] | Binder |
| --- | --- |
| 1.2 | B1 |
| 4.2 | B2 |
| 1.1 | B3 |

Molecular target: T17, human PD-1 ECD-Fc Y68A (human, UniProt Q15116 21-170)
T17 construct: not shown: human IgG1 Fc, residues P101-K330
T17 sequence (Q15116 21-170 Y68A): as the sequence (Q15116 21-170 D77A) above, with Y48A, A57D counted along it
Assay: SPR, Fab on captured PD-1-Fc

| KD mutant/KD wild-type [ratio] | Binder |
| --- | --- |
| 0.8 | B1 |
| 2.2 | B2 |
| 1.4 | B3 |

Molecular target: T18, human PD-1 ECD-Fc T145A (human, UniProt Q15116 21-170)
T18 construct: not shown: human IgG1 Fc, residues P101-K330
Assay: SPR, Fab on captured PD-1-Fc

| KD mutant/KD wild-type [ratio] | Binder |
| --- | --- |
| 82.4 | B1 |
| 1.1 | B2 |
| 0.7 | B3 |

Molecular target: T19, human PD-1 ECD-Fc T153A (human, UniProt Q15116 21-170)
T19 construct: not shown: human IgG1 Fc, residues P101-K330
T19 sequence (Q15116 21-170 T153A): as the sequence (Q15116 21-170 D77A) above, with A57D, T133A counted along it
Assay: SPR, Fab on captured PD-1-Fc

| KD mutant/KD wild-type [ratio] | Binder |
| --- | --- |
| 1 | B1 |
| 0.9 | B2 |
| 1 | B3 |

Molecular target: T20, human PD-1 ECD-Fc P21A (human, UniProt Q15116 22-170)
T20 construct: not shown: human IgG1 Fc, residues P101-K330
T20 sequence (Q15116 21-170 P21A): as the sequence (Q15116 21-170 D77A) above, with P1A, A57D counted along it
Assay: SPR, Fab on captured PD-1-Fc

| KD mutant/KD wild-type [ratio] | Binder |
| --- | --- |
| 1.1 | B1 |
| 2.1 | B2 |
| 1 | B3 |

Molecular target: T21, human PD-1 ECD-Fc S60A (human, UniProt Q15116 21-170)
T21 construct: not shown: human IgG1 Fc, residues P101-K330
T21 sequence (Q15116 21-170 S60A): as the sequence (Q15116 21-170 D77A) above, with S40A, A57D counted along it
Assay: SPR, Fab on captured PD-1-Fc

| KD mutant/KD wild-type [ratio] | Binder |
| --- | --- |
| 1 | B1 |
| 1.8 | B2 |
| 0.6 | B3 |

Molecular target: T22, human PD-1 ECD-Fc P152A (human, UniProt Q15116 21-170)
T22 construct: not shown: human IgG1 Fc, residues P101-K330
T22 sequence (Q15116 21-170 P152A): as the sequence (Q15116 21-170 D77A) above, with A57D, P132A counted along it
Assay: SPR, Fab on captured PD-1-Fc

| KD mutant/KD wild-type [ratio] | Binder |
| --- | --- |
| 1 | B1 |
| 1.4 | B2 |
| 0.9 | B3 |

Molecular target: T23, human PD-1 ECD-Fc D26A (human, UniProt Q15116 21-170)
T23 construct: not shown: human IgG1 Fc, residues P101-K330
T23 sequence (Q15116 21-170 D26A): as the sequence (Q15116 21-170 D77A) above, with D6A, A57D counted along it
Assay: SPR, Fab on captured PD-1-Fc

| KD mutant/KD wild-type [ratio] | Binder |
| --- | --- |
| 1.2 | B1 |
| 1.1 | B2 |
| 0.8 | B3 |
